{
  "source": "patent US20070053894",
  "key": {"[1]": {"target": "T1, Soluble human recombinant p97 (melanotransferrin)", "T1 chain": "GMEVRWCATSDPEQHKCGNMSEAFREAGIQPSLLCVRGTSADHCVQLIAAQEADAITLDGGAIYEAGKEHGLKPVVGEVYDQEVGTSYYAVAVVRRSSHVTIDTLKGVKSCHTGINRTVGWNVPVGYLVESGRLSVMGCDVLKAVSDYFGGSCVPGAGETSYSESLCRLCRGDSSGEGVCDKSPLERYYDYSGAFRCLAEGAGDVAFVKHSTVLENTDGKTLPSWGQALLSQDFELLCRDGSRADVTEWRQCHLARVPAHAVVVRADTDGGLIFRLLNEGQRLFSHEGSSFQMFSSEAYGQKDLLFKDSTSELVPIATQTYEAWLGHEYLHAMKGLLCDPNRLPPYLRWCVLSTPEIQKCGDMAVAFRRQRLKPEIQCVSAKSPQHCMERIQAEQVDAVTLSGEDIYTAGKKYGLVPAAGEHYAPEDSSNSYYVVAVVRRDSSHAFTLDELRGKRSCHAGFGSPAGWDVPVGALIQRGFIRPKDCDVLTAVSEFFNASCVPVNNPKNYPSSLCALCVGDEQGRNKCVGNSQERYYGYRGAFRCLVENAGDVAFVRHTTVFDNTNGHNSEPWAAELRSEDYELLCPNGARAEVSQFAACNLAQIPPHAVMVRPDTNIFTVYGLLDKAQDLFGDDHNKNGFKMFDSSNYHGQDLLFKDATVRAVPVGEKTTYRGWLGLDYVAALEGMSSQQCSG"}, "plasminogen, P00747": {"target": "T2, plasminogen, P00747", "T2 chain": "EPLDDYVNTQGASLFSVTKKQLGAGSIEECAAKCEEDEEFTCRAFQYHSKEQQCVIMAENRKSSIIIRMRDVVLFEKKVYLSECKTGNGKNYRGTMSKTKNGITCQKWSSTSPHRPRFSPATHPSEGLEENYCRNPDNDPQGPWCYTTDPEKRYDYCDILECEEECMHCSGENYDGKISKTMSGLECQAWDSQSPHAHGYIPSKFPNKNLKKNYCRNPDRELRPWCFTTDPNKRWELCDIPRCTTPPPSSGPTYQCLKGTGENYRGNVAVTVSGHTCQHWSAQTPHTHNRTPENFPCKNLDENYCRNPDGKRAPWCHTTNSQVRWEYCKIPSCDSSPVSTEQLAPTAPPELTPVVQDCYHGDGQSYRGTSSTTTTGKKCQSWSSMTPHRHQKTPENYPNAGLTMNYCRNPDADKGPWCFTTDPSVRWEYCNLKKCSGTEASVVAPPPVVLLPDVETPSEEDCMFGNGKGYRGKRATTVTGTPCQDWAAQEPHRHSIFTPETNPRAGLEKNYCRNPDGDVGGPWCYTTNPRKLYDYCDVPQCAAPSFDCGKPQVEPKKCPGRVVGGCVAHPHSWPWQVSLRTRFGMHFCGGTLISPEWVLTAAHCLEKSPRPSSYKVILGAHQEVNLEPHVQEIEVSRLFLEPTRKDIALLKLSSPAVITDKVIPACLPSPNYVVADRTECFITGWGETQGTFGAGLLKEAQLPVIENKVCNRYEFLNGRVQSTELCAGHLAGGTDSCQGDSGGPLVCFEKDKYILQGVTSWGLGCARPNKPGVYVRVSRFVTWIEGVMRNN"}},
  "data": [
    {"protein": "tissue plasminogen activator (tPA) (protein) SYQVICRDEKTQMIYQQHQSWLRPVLRSNRVEYCWCNSGRAQCHSVPVKSCSEPRCFNGGTCQQALYFSDFVCQCPEGFAGKCCEIDTRATCYEDQGISYRGTWSTAESGAECTNWNSSALAQKPYSGRRPDAIRLGLGNHNYCRNPDRDSKPWCYVFKAGKYSSEFCSTPACSEGNSDCYFGNGSAYRGTHSLTESGASCLPWNSMILIGKVYTAQNPSAQALGLGKHNYCRNPDGDAKPWCHVLKNRRLTWEYCDVPSCSTCGLRQYSQPQFRIKGGLFADIASHPWQAAIFAKHRRSPGERFLCGGILISSCWILSAAHCFQERFPPHHLTVILGRTYRVVPGEEEQKFEVEKYIVHKEFDDDTYDNDIALLQLKSDSSRCAQESSVVRTVCLPPADLQLPDWTECELSGYGKHEALSPFYSERLKEAHVRLYPSSRCTSQHLLNRTVTDNMLCAGDTRSGGPQANLHDACQGDSGGPLVCLNDGRMTLVGIISWGLGCGQKDVPGVYTKVTNYLDWIRDNMRP", "values": [
      {"measurement": "VLK-pNA hydrolysis by 75 nM tPA with 70 nM p97, without plasminogen", "setting": "[1]", "value": "Addition of p97 to tPA elicits no observable effect"},
      {"measurement": "apparent Km of tPA for plasminogen, with 50 nM p97", "setting": "plasminogen, P00747", "value": "decreases the apparent Km of tPA for plasminogen by 5-fold from 280 to 52 nM"},
      {"measurement": "apparent Km of tPA for plasminogen, without p97", "setting": "plasminogen, P00747", "value": "decreases the apparent Km of tPA for plasminogen by 5-fold from 280 to 52 nM"}
    ]}
  ]
}
